Assay results taken from patent publication US20250304625A1, “ARTICLES AND METHODS FOR INHIBITING METHIONINE AMINOPEPTIDASE ACTIVITY” (Vanderbilt University, priority 2022, published 2025).

Columns and labels:
[1] = system: zebrafish larvae (WT and zng1^−/−); experiment: Zebrafish larval survival under Metap inhibitor immersion; format: in vivo
Description: (§1) For all experiments larval zebrafish were bred naturally and collected into embryo media and were maintained at 28° C. on a 14/10 h light/dark cycle for duration of experiments. For survival experiments, zebrafish larvae were split into even densities into 6 or 12 multi-well plates in 5 mL or 1 mL embryo media respectively at 3 dpf. Stock solutions of METAP2 inhibitor TNP-470 (Sigma, T1455) and METAP1/2 inhibitor Bengamide B (Santa cruz, sc-397521A) were prepared in ACS-grade DMSO (Fisher Scientific, D136) and TPEN (Sigma, P4413) was prepared in ethanol and stored at −20° C. TNP-470, Bengamide B, and/or TPEN were applied into embryo media as well as a DMSO and/or ethanol vehicle controls at 3 dpf. Zebrafish survival was monitored daily until 6 dpf and all moribund or dead animals were removed. For qPCR experiments, larvae were split at 3 dpf into groups of 20-30 larvae in 20 mL of embryo media supplemented either 20 μM of TPEN or ethanol vehicle control. For imaging experiments, 6 dpf zebrafish larvae treated with 500 nM to 1 μM of Bengamide B or vehicle control were imaged by a Leica Thunder M205FCA stereomicroscope with a Leica DFC9000 GT camera.

[2] = system: zebrafish larvae (WT, zng1 mutant, metap1 mutant); experiment: Zebrafish larval morphometry and gross pathology imaging; format: in vivo
Description: as §1

TKPTS cells = experiment: TKPTS cell proliferation by CellTrace flow cytometry; format: cell-based, murine
Description: TKPTS cells were seeding at 2,000 to 4,000 cells per well of 24- or 12-well tissue culture treated multi-well plates and incubated overnight at 37° C. Cells were staining with CellTRACE violet (Invitrogen, C34557) as described by manufacturer's protocol. Briefly, CellTRACE solution was prepared in PBS at a 1:1,000 dilution, added to the cells, and cells were incubated for 20 min at 37° C. Cells were then washed two times in cell culture media supplemented with 7% FBS, and replaced with fresh cell culture media supplemented with desired chemical treatments (3 μM TPA, Sigma, 723134; 5 μg/ml TNP470, Sigma, T1455; or 50 nM Bengamide B, Santa cruz, sc-397521A). Stock solutions of drugs were prepared in ACS-grade DMSO (Fisher Scientific, D136). […] After three days of growth, cells were stained with MitoTracker far-red (Invitrogen, M22426; 1:2500 dilution for 20 min at 37° C.) and MitoSOX red (Molecular probes, M36008: 1,1000 for 20 min at 37° C.) following manufacture's protocols. Cells were washed with PBS, trypsinized, and transferred to Eppendorf tubes prior to fixation in 4% PFA (Alfa aesar, J61899). Cells were fixed for 20 min at room temperature, centrifuged at 200×g for 10 min and washed with PBS prior to resuspension in 300 μl FACS buffer (2% FBS, 0.02% sodium azide in PBS). All flow cytometry data were collected using a BD LSRII flow cytometer with FACSDIVA software and analyzed using FlowJo (FlowJo LLC). Samples were gated forward scatter height (FSC-H) by forward scatter area (FSC-A) and side scatter height (SSC-H) by side scatter area (SSC-A) to remove doublet populations. The singlet population was gated SSC-A by FSC-A to isolate live cells. The resulting cell population was then assessed for assay-specific fluorescent markers and the median fluorescence intensity (MFI) quantified.

murine METAP1 = target: T1, murine METAP1 (Mus musculus, UniProt Q8BP48); experiment: Murine ZNG1 activation of METAP1 assay (Met release from MAHAIHY); format: biochemical
T1 construct: final preparations of full-length METAP1 utilized in in vitro experiments in this study were purified, stripped of metal; 6xHis (N, cleaved yes); SUMO (N, cleaved yes); made in house; host or cells: E. coli BL21(DE3)
Description: Methionine aminopeptidase activity was evaluated by quantifying the release of Met from the heptapeptide MAHAIHY (Genscript) as adapted from (Kabir-ud-Din, 2003). Reactions were conducted at 25° C. in 25 mM HEPES pH 7.4, 150 mM NaCl, 2 mM TCEP and consisted of 20 nM murine METAP1 with 0, 1, or 2 molar equivalents of Zn. Reactions were initiated with the addition of varying concentrations of MAHAIHY peptide. 50 μL aliquots were taken every 30 sec from 30-150 sec and the reaction was quenched with the addition of 10 μL glacial acetic acid (Supelco, Sigma-Aldrich). 60 μL of 4% w/v ninhydrin (Sigma-Aldrich) in 100% ACN was added to each quenched reaction and incubated at 37° C. for 1 h to detect free Met. The absorbance at 570 nm was measured and the cleaved Met concentration was determined from a standard curve of 10-500 μM Met. All data are reported as the average of triplicate measurements from each evaluated experimental condition. Midpoint and completed reactions were additionally analyzed by LC-ESI-MS to confirm the generation of the expected AHAIHY cleaved peptide product (FIG. 11 I).
Activation assays were performed in 25 mM HEPES pH 7.4, 150 mM KCl, 2 mM MgCl2, 2 mM TCEP. 250 μM NTA was included where indicated. 10 μM Zn2METAP1 was incubated with 25 μM apo or ZnZNG1 (ZNG1 loaded with 0.9 eq, 22.5 μM, Zn) at 37° C. for 1 h. Reactions were diluted 500-fold in 25 mM HEPES pH 7.4, 150 mM NaCl, 2 mM TCEP to a final concentration of 20 nM METAP1 and methionine aminopeptidase activity was assayed as described above by initiating the enzymatic reaction with addition of 750 μM MAHAIHY. When using GTP, GDP, or GDPNP, the activation reaction contained 500 μM of the indicated nucleotide. A control activation reaction of Zn-NTA contained 22.5 μM and 250 μM NTA in reaction buffer.

murine METAP1 1-59 = murine METAP1 1-59 (mouse, UniProt Q8BP48); experiment: intrinsic Trp (W45) fluorescence quenching, 1:1 model
Description: (§2) Peptide binding experiments were performed using an ISS PC1 spectrofluorometer at 25.0° C. Intrinsic Trp fluorescence was monitored using λₑₓ=292 nm nm and λₑₘ=350 nm, with quenching of the 350 nm emission maxima as aliquots of ZNG1 peptide were added. Different [METAP1_{1-59/1-79}] values were used for replicate experiments to better calculate the binding stoichiometry and analyzed globally. In a typical experiment, 5 μM METAP1_{1-59/1-79} in 2.5 mL were incubated for 10 min in chelexed buffer [25 mM HEPES (pH 7.4), 150 mM NaCl, and 2.5 mM TCEP], and aliquots of ZNG1 peptide were added. The equilibrium time was 2 min between subsequent additions of ZNG1 peptide. The peak emission intensities at 350 nm from triplicate experiments were globally fit to a 1:1 binding model using Dynafit (Kuzmic, 1996).
(§3) METAP1 binding of ZNG1 peptides was confirmed by monitoring quenching of W45 fluorescence in murine METAP1₁₋₅₉ and METAP1₁₋₇₉, upon addition of chemically synthesized N-terminal ZNG1 peptides from human, mouse, and zebrafish (FIGS. 2D,E and 9 I). […] Combined, these findings identify the specific regions of interaction between ZNG1 and METAP1.

murine METAP1 1-79 = murine METAP1 1-79 (mouse, UniProt Q8BP48); experiment: as above
Description: as §2, §3

zebrafish Metap1 = target: T2, zebrafish Metap1 (Danio rerio, UniProt Q4QRK0); experiment: Zebrafish Metap1 methionine aminopeptidase activity (HPLC endpoint); format: biochemical; conditions: 1 μM Dr Zng1 and 1 μM Metap1, 100 μM MAHAIHY
T2 construct: Full-length zebrafish metap1 was amplified from 6 dpf whole larval cDNA and cloned into pLM302; 6xHis (N); MBP (N); made in house; host or cells: E. coli BL21(DE3)
Description: A single endpoint assay was used for these experiments. Reaction buffer (20 mM HEPES (pH 7.5), 150 mM NaCl) was chelex treated overnight at 4° C. 1 μM solutions of zebrafish Metap1 and Zng1 were made in reaction buffer. To strip Zn from the METAP1 active site, 3 μM of TPEN was incubated with 1 μM METAP1 at 4° C. for 1 h. To prepare holo-Zng1 (Zn bound), Zng1 was incubated with 10 μM of ZnCl2 for 1 h at 4° C. As a control, Metap1 was incubated with reaction buffer alone. Following the 1 h incubation, Zng1 and Metap1 were washed four times with chelex-treated reaction buffer using protein concentration columns (Amicon Ultra, UFC500396). After washes, proteins were mixed and incubated at 37° C. for 30 min. Following incubation, 100 μM of the synthetic peptide MAHAIHY (Genscript) was added to reactions and incubated for 90 min at 37° C. Reactions were stopped by the addition of a final concentration of 2% trifluoroacetic acid and samples were centrifuged at max speed for 5 min. […]
Twenty μL of each sample and standard was analyzed on an Agilent 1260 Infinity II system. […] MAHAIHY and AHAIHY were detected using absorbance at 280 nm, and retention times were confirmed using each standard. Methionine aminopeptidase relative activity was determined by calculating the percent of MAHAIHY converted to AHAIHY using the AUC values at 280 nm for each peptide.

[3] = 10 μM Zn2METAP1, 25 μM ZNG1, no nucleotide

CCCCCCCCCCCCCC(=O)O[C@H]1CC[C@H](NC(=O)[C@H](OC)[C@H](O)[C@@H](O)[C@H](O)/C=C/C(C)C)C(=O)N(C)C1 [Bengamide B]
survival ([1]; WT control larvae, 1 μM inhibitor, three days of treatment): remained viable | lethality ([1]; zng1 mutant larvae, 1 μM inhibitor, three days of treatment): 100% | viability ([1]; zng1 mutant larvae, co-treatment 500 nM Bengamide B and TPEN vs 500 nM Bengamide B alone): decreased viability | height at anterior anal fin (HAA) ([2]; WT larvae, 6 dpf, three days 500 nM vs vehicle): significantly reduced HAA | morphologic abnormalities (PCE, YSE, USB, CD) ([2]; metap1 mutant larvae vs WT controls at 6 dpf, 1 μM): significantly higher morphologic abnormalities | proliferation (CellTrace) (TKPTS cells; WT TKPTS cells, 50 nM Bengamide B): reduced cellular proliferation

CO[C@@H]1[C@H](OC(=O)NC(=O)CCl)CC[C@]2(CO2)[C@H]1[C@@]1(C)O[C@@H]1CC=C(C)C [TNP-470]
survival ([1]; zng1 mutant larvae compared to WT, Zn-deplete conditions (TPEN)): more pronounced | survival ([1]; zng1 mutant larvae compared to WT, immersion, three days): decreased survival | proliferation (CellTrace) (TKPTS cells; Zng1^−/− cells relative to WT, 5 μg/ml TNP-470): slowed proliferation

ApoZNG1: recombinant murine ZNG1 devoid of bound metal
activation of Zn2METAP1 (murine METAP1; [3]): no activation

Hs ZNG1 N-terminal peptide
Kd (murine METAP1 1-59): 100 nM | Kd (murine METAP1 1-79): 100 nM

Zebrafish Zng1: recombinant zebrafish Zng1, Zn bound (holo-Zng1)
apo-Metap1 activity (zebrafish Metap1): stimulates

ZnZNG1: recombinant murine ZNG1 loaded with 0.9 eq Zn at the high-affinity site
activation of Zn2METAP1 (murine METAP1; [3]): recovers small amounts of Zn4METAP1 activity | activation of Zn2METAP1 (murine METAP1; 250 μM NTA, GDPNP): no effect | activation of Zn2METAP1 (murine METAP1; 250 μM NTA, GTP, above that of NTA-bound Zn): significant activation | activation of Zn2METAP1 (murine METAP1; 250 μM NTA, presence and absence of GDP): only minor activation | activation of Zn4METAP1 (murine METAP1; fully metalated Zn4METAP1, absence of nucleotide): no activation | activation of Zn2METAP1 (murine METAP1; in the presence of 500 μM GDP): some ZnZNG1-dependent activation | activation of Zn2METAP1 (murine METAP1; in the presence of 500 μM GDPNP): no activation | activation of Zn2METAP1 (murine METAP1; in the presence of 500 μM GTP): nearly fully activates

Ac-AEEEYAEDCPELVPIETKNQE-NH2 [Mm ZNG1 N-terminal peptide]
Kd (murine METAP1 1-59): ~100 nM | Kd (murine METAP1 1-79): ~100 nM

Ac-MEDEDECPELVPIKEKPSGP-NH2 [Dr ZNG1 N-terminal peptide]
Kd (murine METAP1 1-59): ~100 nM | Kd (murine METAP1 1-79): ~100 nM
